Assay results reported in the supplement of paper PMC10724198.
± gives the standard deviation of the averaged measurements.

Test system: Saccharomyces cerevisiae
Test: protein stability index of tFT-peptide fusion (C-terminal peptide) (PSI (0-1 scale)); higher = more stable (slower turnover)
Conditions: genetic background: wild type; temperature: 30 C
Method: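 Multiplexed protein stability (MPS) profiling in S. cerevisiae. Random 12-aa peptides (tFT-X12 library) are fused to the C-terminus of a sfGFP-mCherry tandem fluorescent timer, after mCherry and a GGGS linker. Cells are FACS-sorted into 8 mCherry/sfGFP bins and deep-sequenced. The protein stability index (PSI) is the read-weighted bin average, scaled from 0 (unstable) to 1 (stable). Only peptides with >10 reads are reported; cells were grown at 30 °C in SC-His with glucose.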
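Further: PSI is a weighted mean of sequencing reads over stability bins, variants kept only with over 10 reads, mCherry proximal and sfGFP distal, peptide attached via GGGS linker.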

Row | Sequence | protein stability index
1 | VFPLSLLLTSFL | 0.591 ± 0.047
2 | SNGVCVGGSESA | 0.674 ± 0.082
3 | PPLPPPPLLPAP | 0.726 ± 0.019
4 | LRLHPSPPVPSR | 0.7003 ± 0.0047
5 | CGLCDISFDLVM | 0.626 ± 0.027
6 | LPPPPPPSHPPP | 0.697 ± 0.018
7 | FGLVYCSGLTVS | 0.54 ± 0.0079
8 | LSALPSRPCSKR | 0.6893 ± 0.005
9 | TYRPEMYSRVLT | 0.738 ± 0.011
10 | HYFRSIFLFVVR | 0.506 ± 0.017
11 | KNNERIDKRKKI | 0.726 ± 0.063
12 | KKKNKEQTKKTK | 0.719 ± 0.024
13 | TEKQSGRINTAI | 0.653 ± 0.034
14 | RSGWRLLHLTTL | 0.613 ± 0.013
15 | PPTFLPLPSSPP | 0.651 ± 0.079
16 | QTLNTKEKREKE | 0.727 ± 0.025
17 | KNKENLNINNKR | 0.747 ± 0.0078
18 | HRPPPPPSPSHL | 0.686 ± 0.01
19 | LPNLTIPSRAIA | 0.623 ± 0.0054
20 | SWFYTQSEKTLS | 0.7798 ± 0.005
21 | PLHRPLPRPPSP | 0.745 ± 0.019
22 | GSGDFWRLCISL | 0.785 ± 0.1
23 | LFLFPPVLTFPL | 0.625 ± 0.035
24 | NRKKIKSIDVRK | 0.67 ± 0.07
25 | GGSSWSLGGGCG | 0.713 ± 0.023

Row | Sequence | protein stability index
26 | VFTCTGVLFGGM | 0.768 ± 0.12
27 | PPPPLPPLPGTL | 0.657 ± 0.045
28 | SDCWGAIIGCSG | 0.677 ± 0.027
29 | STNNSGRPMSFL | 0.664 ± 0.045
30 | APPRPTRSHSAL | 0.657 ± 0.043
31 | TKIENYKRKRAK | 0.708 ± 0.1
32 | PPPPPPPSSPPP | 0.732 ± 0.012
33 | PSCRPPLLHPDS | 0.721 ± 0.0094
34 | RAWELPRLRGRD | 0.743 ± 0.076
35 | PSPSPPPPLSPP | 0.698 ± 0.045
36 | QFWVICTRGSEN | 0.694 ± 0.029
37 | IFGVSRTGIRCT | 0.56 ± 0.011
38 | SIKKKQKIKLTK | 0.689 ± 0.02
39 | PSPMHPSAHFST | 0.67613 ± 0.00039
40 | PPLPPPPSPALL | 0.75 ± 0.019
41 | GCAGRHRWVGEW | 0.6649 ± 0.0027
42 | GEGNRVPNPSRP | 0.669 ± 0.022
43 | GIHFKIHKSSSN | 0.647 ± 0.013
44 | PRPRSPSPPLPP | 0.705 ± 0.01
45 | VEYSVVDKRLLY | 0.651 ± 0.065
46 | SSLWGAGGRGID | 0.706 ± 0.011
47 | GGWAHGEGAGDC | 0.614 ± 0.028
48 | HALSVDPAFKQS | 0.66 ± 0.05
49 | GRQEISVGGRRM | 0.7007 ± 0.00071
50 | LPSPLGSSIFSN | 0.693 ± 0.015

Row | Sequence | protein stability index
51 | AETYASFHLTDP | 0.712 ± 0.042
52 | GANKQHLARKTE | 0.7254 ± 0.0069
53 | GPEGSDMIDPWK | 0.666 ± 0.13
54 | MNVPRQLISRFV | 0.683 ± 0.064
55 | PPPPPPPPRRPP | 0.595 ± 0.047
56 | RPCSVPFSNTSP | 0.666 ± 0.0067
57 | CKKGVEIIEREK | 0.632 ± 0.026
58 | SNWLMTYIIRRK | 0.641 ± 0.012
59 | IMSFTLLAPGQM | 0.692 ± 0.019
60 | PTYTPAFPPVSS | 0.699 ± 0.018
61 | RHRLTPLTQYPS | 0.677 ± 0.062
62 | WCAGLATAIQLR | 0.636 ± 0.053
63 | ERGKRKASHRRR | 0.683 ± 0.041
64 | DRVLRGAIWVSV | 0.571 ± 0.045
65 | QKKQKIKYRSKN | 0.714 ± 0.053
66 | GGRVARRGAERG | 0.654 ± 0.14
67 | PTFVQGVVLGRG | 0.702 ± 0.086
68 | PIELTQRASVPP | 0.6592 ± 0.0052
69 | VPPPLPSPPSHP | 0.761 ± 0.038
70 | LSPRTMYHAYPV | 0.712 ± 0.067
71 | PFVLVSDAHLIT | 0.66 ± 0.035
72 | AGPDGDWREPRP | 0.57 ± 0.069
73 | GKEEGRETGREG | 0.741 ± 0.038
74 | KNPSLSSPLPHP | 0.6908 ± 0.0041
75 | VYPRRLLPSRGL | 0.668 ± 0.098

Row | Sequence | protein stability index
76 | CMWDAVGFALRS | 0.72 ± 0.011
77 | PVRSPPPLPSPP | 0.653 ± 0.037
78 | NESCRNREPGHV | 0.664 ± 0.1
79 | LVGQVKYMIKEQ | 0.684 ± 0.028
80 | VCYGELTISNLE | 0.654 ± 0.045
81 | RKTGTGETRTRR | 0.691 ± 0.015
82 | CLFPVSLPCPTN | 0.714 ± 0.018
83 | PPPGPNPPSSPS | 0.758 ± 0.036
84 | SGIKGENKIKEK | 0.681 ± 0.0097
85 | LYIRHPPSAPLP | 0.808 ± 0.13
86 | CVPFFSSSSPLI | 0.812 ± 0.037
87 | ASPFTYPDFFFP | 0.661 ± 0.046
88 | EVGQYVEWSCLL | 0.671 ± 0.019
89 | LDLYRYLQDLGC | 0.731 ± 0.018
90 | SLFPAETPPKYR | 0.656 ± 0.025
91 | VQLCQGWIGSES | 0.676 ± 0.0089
92 | DHLVLSGPPPPV | 0.733 ± 0.056
93 | GLVGCDPPPPAF | 0.72 ± 0.04
94 | WCGLRVGGGGMW | 0.74 ± 0.017
95 | PLPRLPLLPPLR | 0.67 ± 0.045
96 | PPTAPCPPPLPP | 0.645 ± 0.012
97 | QAVPRAAHLHPL | 0.66 ± 0.11
98 | PLPPPPPPIPLT | 0.702 ± 0.14
99 | ANRTIFWGRVRN | 0.721 ± 0.05
100 | WRQRVWRGGWKG | 0.594 ± 0.031

Row | Sequence | protein stability index
101 | CTGSRPPPDCAV | 0.646 ± 0.019
102 | RDCPVTPGTLFS | 0.744 ± 0.084
103 | IRRKYEGNKEQN | 0.721 ± 0.069
104 | TGVGRLGYRFVV | 0.588 ± 0.0064
105 | IPPSSLSSPLPP | 0.704 ± 0.019
106 | RRDIPLSPVAFS | 0.702 ± 0.031
107 | FHSLTDSSPPGL | 0.649 ± 0.022
108 | PPLTSSVCFSLI | 0.665 ± 0.098
109 | PSLPCPVLVFSL | 0.462 ± 0.054
110 | GRVRETRCISYG | 0.652 ± 0.11
111 | SLRLAHSPPDEV | 0.749 ± 0.17
112 | DPHINARERTPL | 0.814 ± 0.2
113 | VCAVAQPCRVQL | 0.683 ± 0.025
114 | VGGGGGAEGAGW | 0.739 ± 0.12
115 | PPRPRPPSSPST | 0.641 ± 0.0099
116 | WQLKGNGGREAL | 0.671 ± 0.034
117 | HMRPSTRLMPAG | 0.593 ± 0.01
118 | SEARCVGSVWGG | 0.757 ± 0.098
119 | PRPPPSPPPILP | 0.676 ± 0.0072
120 | HPPAFSAKTFPS | 0.683 ± 0.043
121 | VREQRLPLARRV | 0.706 ± 0.07
122 | WLGRGGACGVRW | 0.696 ± 0.05
123 | IFKNAWSSYRIE | 0.714 ± 0.037
124 | NIKKNQRKEASK | 0.698 ± 0.039
125 | SIVPIIPDSVPP | 0.676 ± 0.048

Row | Sequence | protein stability index
126 | THVKVNNQARGR | 0.722 ± 0.014
127 | RPSNPPTKSQPS | 0.665 ± 0.019
128 | PPSPHPSLPPPR | 0.668 ± 0.024
129 | GRGRVAAGFVAR | 0.737 ± 0.039
130 | RSPPHSNLAHCI | 0.684 ± 0.037
131 | DLHFAVVFPISR | 0.733 ± 0.013
132 | LSRGGVSCWWGH | 0.772 ± 0.033
133 | KLKEDRRIGRNR | 0.668 ± 0.033
134 | PPSPSSLPPPPL | 0.733 ± 0.0075
135 | SMSPPLSLFPSF | 0.841 ± 0.096
136 | PPPPPHPRSPLS | 0.738 ± 0.037
137 | PSFLTGRPISPV | 0.677 ± 0.018
138 | RLDRGLHIKAIT | 0.704 ± 0.014
139 | VASWNSDKTKND | 0.752 ± 0.12
140 | GCFARSEKLSGL | 0.687 ± 0.1
141 | PRGILLATPEGH | 0.684 ± 0.021
142 | PPPPFAAALSTP | 0.69 ± 0.039
143 | AGEGRLGDNIKG | 0.6794 ± 0.004
144 | HRSHVRHSFPNP | 0.703 ± 0.038
145 | PGLNHLTPMLPP | 0.635 ± 0.038
146 | LPGTTFTPPVAS | 0.662 ± 0.008
